# Test results: patent publication US20140335050A1, “METHODS, COMPOSITIONS, AND KITS FOR THE TREATMENT OF CANCER” (The General Hospital Corporation, priority 2011, published 2014)
# Tests used:
# Format in all cases: cell-based, human
# melanomas and gliomas = assay: Intracellular staining for Melan-A/MART-1 and gp100, melanomas and gliomas exposed to hits (Table 10); details: in most cell lines; three days (Table 10)
# Protocol: FIG. 7 is a series of graphs showing intracellular staining and flow histograms used to generate data for Table 10. All cells were stained with an antibody to gp100. Thin line represents untreated cells, bold line represents cells treated for three days with 17-AAG (1 μg/ml). Numbers represent geometric mean of flow histograms.
# A further orthogonal secondary screen is the measurement of Melan-A/MART-1 and gp100 in additional melanoma cell lines and gliomas in response to the primary hit candidates. […] If the compounds of interest increase antigen levels in multiple melanoma cell lines and two gliomas, the effects of the compounds are clearly not limited to a single melanoma cell type.
# As for the primary screen, 17-AAG and aphidicolin, had the largest impact on EGFP stimulation, inducing 3-fold and 5-fold increases respectively. Four additional compounds: damnacanthal, flunarizine, OBAA, and dantrolene stimulated EGFP more than 2-fold. We then tested the ability of the hit compounds to induce antigen increases in a more diverse set of tumors including melanomas and gliomas. […]
# (§1) Cells were fixed with 1% formaldehyde, permeabilized with 0.1% saponin, stained with monoclonal antibodies to melanocyte antigens. […] The level of EGFP was determined by flow cytometry of unfixed cells that were washed and resuspended in 1×PBS.
# MU89 melanoma cells = assay: Tumor cell/T cell co-culture IL-2 ELISA (Melan-A/MART-1 specific TCR Jurkat line J-TCR-M1 as responder)
# Text: The assay relies on the use of an antigen-specific responder T cell line. […] The chosen TCR reacts specifically to a Melan-A/MART-1 decapeptide (26[…]35) presented by HLA-A2, with appropriate triggering of T cell activation. We then used a lentiviral vector system for transduction of this specific TCR into the J.RT3-T3.5 T cell line, a Jurkat cell derivative which fails to express endogenous surface TCR through a mutation in its beta chain.
# We evaluated several candidate melanoma cell lines for the ability to stimulate the J-TCR-M1 cell line. Levels of Melan-A/MART-1 (determined by intracellular staining and flow cytometry) and corresponding levels of induced IL-2 (determined by coculture with J-TCR-M1 and IL-2 ELISA) were tested for different melanoma cell lines.
# The 480 compounds were tested in six parallel 96 well plates. The first two columns (16 wells) of each plate were used for standards (8 wells), untreated controls (4 wells), and positive controls (4 wells). The other ten columns (80 wells) were used for testing compounds in separate wells. A100 μl aliquot containing 5×10^4 MU89 cells was added to wells that contained 0.1 μl of each test drug diluted in 50 μl of RPMI media. The plates were incubated with drug for 72 hours at 37° C. in a humidified incubator with 5% CO2. After 72 hours, each well received 2.5×10^4J-TCR-M1 cells in 50 μl medium, and then incubated a further 24 hours. At the conclusion of the 24 hour co-culture period, each plate was centrifuged to pellet the cells and 100 μl supernatant fluid was collected from each well and plated in a parallel 96 well flat bottom well for IL-2 ELISA assay.
# Melanoma cells were treated with hits from the primary screen for three days prior to counting and plating for the coculture assay (cells were washed and resuspended in fresh medium that no longer contained the treatment agents during the co-culture). A100 μl volume of 5×10^5 cells/ml tumor cells were mixed with 50 μl of […] T cells in a 96-well V-bottom plate and incubated overnight (16-24 hours). Plates were centrifuged to pellet the cells and 100 μl of supernatant fluid was removed from each well for cytokine assay. To assess antigen-specific T cell responses, a final concentration of 3.33 μg/ml Melan-A/MART-1 peptide (26[…]35 (A27L from wild type)) was added to the co-culture.
# The protocol for evaluation of the cytokine IL-2 was performed using a the BD OptEAI kit, human IL-2 ELISA set from BD Biosciences (San Diego, Calif.) following the manufacturer's recommendations. The absorbance 450 nm was read in a BioRad 3550 plate reader. A standard curve using known concentrations of IL-2 (from 500 to 8 pg/ml) was included in each ELISA plate. IL-2 levels for experimental samples (pg/ml) were calculated from the standard curve.
# 100 μl of 5×10^5 tumor cells/ml were mixed with 50 μl of T cells (at 5×10^5 cells/ml) in a 96-well V-bottom plate and incubated overnight (16-24 hours). Plates were centrifuged to pellet the cells and 120 μl of supernatant fluid was removed from each well for cytokine assay. To assess antigen-specific T cell responses, 3.33 μg/ml Melan-A/MART-1 peptide was added to the co-culture.
# The protocols for evaluation of either IL-2 or IFN-gamma were similar, following the manufacturer's recommendations. A standard curve using known concentrations of each cytokine was included in each ELISA experiment. ELISA plates were coated with capture antibody and then washed with 1×PBS 0.5% Tween-20. Wells were blocked with 1×PBS 1% FBS for 1 hour and rewashed.
# [1] = system: Melan-A/MART-1 promoter EGFP reporter cell line; assay: Melan-A/MART-1 promoter-driven EGFP reporter cell line, secondary screen of hits (FIG. 6); details: over a dose range (FIG. 6)
# Text: FIG. 6 is a series of graphs showing EGFP detection of in cells treated with the indicated hits showing ability to upregulate a cell line containing a Melan-A/MART-1 promoter-driven EGFP reporter. Note that the x-axes (drug concentrations) and y-axes (EGFP fluorescent measurement) cover different ranges to best indicate the activities of individual compounds. Data from a single determination, representative of at least three confirmatory experiments, is shown.
# The EGFP reporter driven by the Melan-A/MART-1 promoter represents one such orthogonal assay because it evaluates directly the effect of the compounds on Melan-A/MART-1 promoter activity independent of Melan-A/MART-1 protein expression. Compounds passing the other secondary screens, but failing this one, may affect antigen presentation by other mechanisms such as increasing the efficiency of antigen processing, enhancing MHC Class I levels, or by stabilizing the antigen/MHC complex.
# As for the primary screen, 17-AAG and aphidicolin, had the largest impact on EGFP stimulation, inducing 3-fold and 5-fold increases respectively. […]
# as §1
# tumor cell lines = assay: MHC Class I and Class II surface staining, statements over a panel of tumor cell lines; details: HeLa, MCF-7, U2-OS, MU-89, U118, Jurkat, Raji (Table 19)
# Protocol: (§2) For surface staining of HLA Class I and II antigens, cells were harvested using CellStripper™ from Mediatech (Manassas, Va.). All staining steps were performed on ice. Following a first incubation with antibody to Class I (W6/32) or Class II (L243) for 30 minutes. Stained cells were washed twice with cold PBS and then stained with a goat anti-mouse FITC secondary antibody to allow for quantitative analysis by flow cytometry. For evaluation of cytoplasmic antigens, including Melan-A/MART-1 and gp100, cells were first fixed in paraformaldehyde and permeabilized with saponin as previously described. Staining for cytoplasmic antigens was carried out at room temperature (22° C.).
# [2] = system: Jurkat T cell lymphoma cells; assay: Surface antibody staining and flow cytometry (MHC Class I/II)
# Protocol: (§3) Intracellular staining and flow cytometric analyses of cytoplasmic Melan-A/MART-1, and gp100 expression were performed as described previously. Cells were fixed with 1% formaldehyde, permeabilized with 0.1% saponin, stained with monoclonal antibodies to melanocyte antigens. Antibodies were obtained with specificity for: Melan-A/MART-1 from Vector Labs (Burlingame, Calif.); gp100/HMB45 from DakoCytomation (Carpinteria, Calif.) and then visualized with goat anti-mouse FITC-conjugated secondary antibody from Invitrogen (Frederick, Md.). The level of EGFP was determined by flow cytometry of unfixed cells washed and resuspended in 1×PBS. Surface staining of MHC Class I was carried out using the antibody W6/32 on cells harvested with Cell Stripper from MediaTech Inc. (Manassas, Va.) and carried out on ice.
# as §2
# [3] = system: EBV-19 B cell lymphoma cells; assay: as above; details: three days, IFN-β 5000 Units/ml, IFN-γ 100 ng/ml
# Protocol: as §3, §2
# MU89 melanoma cell line = assay: Antibody staining and flow cytometry (intracellular Melan-A/MART-1, gp100, TRP-2; surface MHC Class I/II)
# Protocol: (§4) Cells were fixed with 1% formaldehyde, permeabilized with 0.1% saponin, stained with monoclonal antibodies to melanocyte antigens. Antibodies were obtained with specificity for: MART-1 from Vector Labs (Burlingame, Calif.); gp100 HMB45 from DakoCytomation (Carpinteria, Calif.) and then visualized with goat anti-mouse FITC-conjugated secondary antibody from Invitrogen (Fredrick, Md.). The level of EGFP was determined by flow cytometry of unfixed cells that were washed and resuspended in 1×PBS.
# (§5) Cells were plated at a density of 1×10^5 in 1 ml of medium in a 24-well plate and cultured for varying times as indicated in results. […] After incubation, cells were collected by trypsinization and then evaluated by flow cytometry.
# as §3
# (§6) Cell were seeded at 1×10^6 cells in a T25 flask with 10 ml of media for the 4 day IFN-beta pre-treatments. Cells were then harvested and plated in 24 well plate at 1×10^5 cells per well in 1 ml of media for 3 day treatments.
# as §2
# [4] = system: U-118 MG glioma cell line; assay: Antibody staining and flow cytometry (intracellular gp100; surface MHC Class I/II)
# Protocol: as §4, §5, §3, §6, §2
# [5] = system: HeLa cervical carcinoma cells; assay: Surface antibody staining and flow cytometry (MHC Class I/II)
# Protocol: as §3, §6, §2
# [6] = system: Raji B cell lymphoma cells; assay: as above
# Protocol: as §3, §6, §2
# U2-OS osteosarcoma cells = assay: as above; details: U2-OS
# Protocol: as §3, §6, §2
# [7] = system: MCF-7 breast cancer cells; assay: as above; details: MCF-7; single agent
# Protocol: as §3, §6, §2
# [8] = three days, IFN-β 5000 Units/ml, IFN-γ 100 ng/ml, PU-H71 0.3 mg/ml
# [9] = MU89, three days, IFN-β 5000 Units/ml, IFN-γ 100 ng/ml, PU-H71 0.3 mg/ml
molecule,measurement,setting,value
C[C@@]1(CO)[C@H](O)CC[C@@]2(C)[C@H]1CC[C@H]1C[C@@H]3C[C@@]12CC[C@]3(O)CO [Aphidicolin],"Protein increase (Melan-A/MART-1, gp100 intracellular staining)",melanomas and gliomas,inducing high levels of protein increases at low concentrations
same,"Fold increase (IL-2 relative to untreated controls), hits from pilot screen","MU89 melanoma cells; about 10 μM, 72 hours treatment, then 24 hours co-culture",2.0 fold
same,IL-2 stimulation in repeat of the tumor T cell co-culture IL-2 ELISA,MU89 melanoma cells; hits re-tested over a wider dose range (FIG. 5),~5 fold
same,EGFP stimulation (Melan-A/MART-1 promoter reporter),[1],5 fold
"IFN-γ: IFN-γ-1b stock solution 100 μg/ml in PBS; SEQ ID NO: 5 (protein, IFN-gamma-1b) MQDPYVKEAENLKKYFNAGHSDVADNGTLFLGILKNWKEESDRKIMQSQIVSFYFKLFKNFKDDQSIQKSVETIKEDMNVKFFNSNKKKRDDFEKLTNYSVTDLNVQRKAIHELIQVMAELPPAAETGKRKRSQMLFRGR",Class I MHC expression over the tumor panel,tumor cell lines,induce significant increases
same,Class II MHC expression over the tumor panel,tumor cell lines,induced significant Class II
same,L243 (MHC Class II surface staining),[2]; single agent,1.1
same,W6/32 (MHC Class I surface staining),[2]; single agent,86.5
same,"MHC Class I, geometric mean of surface staining (W6/32)","[2]; three days, IFN-β 5000 Units/ml, IFN-γ 100 ng/ml, PU-H71 0.3 μg/ml",87
same,"MHC Class II, geometric mean of surface staining (L2443)",[2]; [8],1
same,"MHC Class II, geometric mean of surface staining (L2443)",[3]; PU-H71 0.3 mg/ml,118
same,"MHC Class I, geometric mean of surface staining (W6/32)",[3]; PU-H71 0.3,277
same,"MHC Class I, geometric mean of surface staining (W6/32)",MU89 melanoma cell line; [9],213
same,"MHC Class II, geometric mean of surface staining (L2443)",MU89 melanoma cell line; [9],139
same,L243 (MHC Class II surface staining),"MU89 melanoma cell line; MU-89, single agent",57.6
same,W6/32 (MHC Class I surface staining),"MU89 melanoma cell line; MU-89, single agent",138.0
same,"MHC Class II, geometric mean of surface staining (L2443)","[4]; Giloma-118, three days, IFN-β 5000 Units/ml, IFN-γ 100 ng/ml, PU-H71 0.3 mg/ml",40
same,"MHC Class I, geometric mean of surface staining (W6/32)","[4]; Giloma-118, three days, IFN-β 5000 Units/ml, IFN-γ 100 ng/ml, PU-H71 0.3",137
same,L243 (MHC Class II surface staining),"[4]; U118, single agent",65.3
same,W6/32 (MHC Class I surface staining),"[4]; U118, single agent",250.5
same,L243 (MHC Class II surface staining),"[5]; HELA, single agent",86.0
same,W6/32 (MHC Class I surface staining),"[5]; HELA, single agent",464.8
same,"MHC Class II, geometric mean of surface staining (L2443)","[5]; HeLa, three days, IFN-β 5000 Units/ml, IFN-γ 100 ng/ml, PU-H71 0.3 mg/ml",214
same,"MHC Class I, geometric mean of surface staining (W6/32)","[5]; HeLa, three days, IFN-β 5000 Units/ml, IFN-γ 100 ng/ml, PU-H71 0.3",637
same,L243 (MHC Class II surface staining),[6]; single agent,339.3
same,W6/32 (MHC Class I surface staining),[6]; single agent,117
same,"MHC Class I, geometric mean of surface staining (W6/32)",[6]; [8],117
same,"MHC Class II, geometric mean of surface staining (L2443)",[6]; [8],142
same,L243 (MHC Class II surface staining),U2-OS osteosarcoma cells; single agent,87.6
same,W6/32 (MHC Class I surface staining),U2-OS osteosarcoma cells; single agent,293.2
same,"MHC Class I, geometric mean of surface staining (W6/32)",U2-OS osteosarcoma cells; [8],284
same,"MHC Class II, geometric mean of surface staining (L2443)",U2-OS osteosarcoma cells; [8],237
same,L243 (MHC Class II surface staining),[7],59.1
same,W6/32 (MHC Class I surface staining),[7],478.5
